Laboratory results taken from patent US20220048967A1 (published 2022).
Numbered stars: 1 amine (or outer) side, 2 acyl side, 3 side chain; on linkers, the order of the positions; unused ones are H or OH. Square brackets hold non-standard residues; d marks the D form. Side chains are listed from the residue outwards. Ends that are not written are not given here. * marks the point of attachment. C20 diacid = O=C(O)CCCCCCCCCCCCCCCCCCC(=O)*; γGlu = O=C(O)[C@H](CCC(=O)[*:2])N[*:1]; AEEA = NCCOCCOCC(=O)O; Aib = CC(C)(N)C(=O)O

Molecular target: human GLP-1 receptor (human, UniProt P43220 24-463)
Assay: cell-based or functional assay

Row | Binder | hGLP1R GTPgS % Top [%] | hGLP1R GTPgS Rel EC50 [nM]
1 | Y[Aib]EGTFTSDYSILLDKK([AEEA-AEEA-γGlu-C20 diacid])AQ[Aib]AFIEYLIAGGPSSG-NH2 (N-terminus assumed; SMILES CC[C@H](C)[C@H](NC(=O)[C@H](CC(C)C)NC(=O)[C@H](Cc1ccc(O)cc1)NC(=O)[C@H](CCC(=O)O)NC(=O)[C@@H](NC(=O)[C@H](Cc1ccccc1)NC(=O)[C@H](C)NC(=O)C(C)(C)NC(=O)[C@H](CCC(N)=O)NC(=O)[C@H](C)NC(=O)[C@H](CCCCNC(=O)COCCOCCNC(=O)COCCOCCNC(=O)CC[C@H](NC(=O)CCCCCCCCCCCCCCCCCCC(=O)O)C(=O)O)NC(=O)[C@H](CCCCN)NC(=O)[C@H](CC(=O)O)NC(=O)[C@H](CC(C)C)NC(=O)[C@H](CC(C)C)NC(=O)[C@@H](NC(=O)[C@H](CO)NC(=O)[C@H](Cc1ccc(O)cc1)NC(=O)[C@H](CC(=O)O)NC(=O)[C@H](CO)NC(=O)[C@@H](NC(=O)[C@H](Cc1ccccc1)NC(=O)[C@@H](NC(=O)CNC(=O)[C@H](CCC(=O)O)NC(=O)C(C)(C)NC(=O)[C@@H](N)Cc1ccc(O)cc1)[C@@H](C)O)[C@@H](C)O)[C@@H](C)CC)[C@@H](C)CC)C(=O)N[C@@H](C)C(=O)NCC(=O)NCC(=O)N1CCC[C@H]1C(=O)N[C@@H](CO)C(=O)N[C@@H](CO)C(=O)NCC(N)=O) [Example 317] | 53.7 | 0.536
2 | Y[Aib]EGTFTSDYSILLDKK([AEEA-AEEA-γGlu-C20 diacid])AQ[Aib]EFIEYLIAGGPSSG-NH2 (N-terminus assumed; SMILES CC[C@H](C)[C@H](NC(=O)[C@H](CC(C)C)NC(=O)[C@H](Cc1ccc(O)cc1)NC(=O)[C@H](CCC(=O)O)NC(=O)[C@@H](NC(=O)[C@H](Cc1ccccc1)NC(=O)[C@H](CCC(=O)O)NC(=O)C(C)(C)NC(=O)[C@H](CCC(N)=O)NC(=O)[C@H](C)NC(=O)[C@H](CCCCNC(=O)COCCOCCNC(=O)COCCOCCNC(=O)CC[C@H](NC(=O)CCCCCCCCCCCCCCCCCCC(=O)O)C(=O)O)NC(=O)[C@H](CCCCN)NC(=O)[C@H](CC(=O)O)NC(=O)[C@H](CC(C)C)NC(=O)[C@H](CC(C)C)NC(=O)[C@@H](NC(=O)[C@H](CO)NC(=O)[C@H](Cc1ccc(O)cc1)NC(=O)[C@H](CC(=O)O)NC(=O)[C@H](CO)NC(=O)[C@@H](NC(=O)[C@H](Cc1ccccc1)NC(=O)[C@@H](NC(=O)CNC(=O)[C@H](CCC(=O)O)NC(=O)C(C)(C)NC(=O)[C@@H](N)Cc1ccc(O)cc1)[C@@H](C)O)[C@@H](C)O)[C@@H](C)CC)[C@@H](C)CC)C(=O)N[C@@H](C)C(=O)NCC(=O)NCC(=O)N1CCC[C@H]1C(=O)N[C@@H](CO)C(=O)N[C@@H](CO)C(=O)NCC(N)=O) [Example 318] | 58.4 | 0.415
